Source: the Human Domainome abundance scans (Beltran et al. 2025)

B1: Zinc finger homeobox protein 3, residues 2244 to 2299; numbered along this chain, Q15911 (parent)
chain: SSRTRFTDYQLRVLQDFFDANAYPKDDEFEQLSNLLNLPTRVIVVWFQNARQKARK

Variants of: B1
Assay: abundance fitness (aPCA) (normalised: wild type 0, dead -1); higher = more abundant; growth selection in yeast, the domain comes from the species named
Details: Homo sapiens

Abundance fitness of substitutions, site by site:
S33: M -0.638 | V -0.452 | Y -0.871 | C -0.498 | H -0.085 | D -0.833 | E -0.5 | K -0.129 | W -0.848 | R -0.05 | G -0.083
L35: C -0.176 | A -0.078 | Y -0.129 | H -0.088 | G -0.06 | F -0.382 | V 0.041 | K 0.201 | M 0.085 | E -0.107 | N -0.004 | R 0.085 | D 0.115 | S 0.007 | P -0.918 | T 0.117 | I 0.067
L36: R -0.748 | V 0.024 | C -0.313 | Y -0.86 | M -0.375 | I -0.459 | E -0.892 | A -0.238 | G -0.929 | S -0.272 | F -0.659 | Q -0.988 | H -1.06 | W -0.811 | T 0.013 | P -1.06 | K -0.95 | D -0.908
I43: K -0.744 | S -0.845 | N -1 | L -0.163 | C -0.36 | F -0.792 | W -0.879 | D -0.772 | H -1.13 | A -0.56 | R -0.837 | M -0.439 | V -0.056 | T -0.396 | E -1.07 | G -0.637 | Q -0.637
Q31: N 0.366 | A -0.192 | R -0.007 | D -0.193 | T 0.035 | P -0.764 | M -0.146 | W -0.279 | I 0.117 | S -0.082 | F 0.162 | H -0.165 | C -0.031 | Y -0.186 | G -0.055 | E -0.066 | K 0.022 | L -0.257
N37: H -0.013 | T -0.179 | S -0.064
